This is an account of results in paper PMC11191887, “Abstracts From the First Annual Research Day Hosted by the Michigan State University College of Osteopathic Medicine, Novi, Michigan, May 15, 2023” (Spartan Medical Research Journal, 2024).

The experiment concerns the target T1, House dust mite allergen Der p 2 (Dermatophagoides pteronyssinus, UniProt P49278).
T1 construct: Der p 2, major allergen of the house dust mite Dermatophagoides pteronyssinus; The structure is said to show monomeric Der p 2; No PDB id is printed in the abstract; source: Pichia pastoris, purified
Briefly: crystal structure; purified 4C8 Fab and Der p 2 mixed in a 1:1 molar ratio for crystallization; X-ray, 3.0 Å. The note with it: both partners purified.

T1 sequence (P49278 18-146): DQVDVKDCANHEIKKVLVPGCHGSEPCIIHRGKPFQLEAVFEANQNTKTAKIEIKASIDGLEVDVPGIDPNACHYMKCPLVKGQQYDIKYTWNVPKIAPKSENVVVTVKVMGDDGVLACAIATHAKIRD

B1: human-derived IgE mAb 4C8 Fab (Fab, V domains shown)
VH: EVQLVESGGGLVQPGGSLRLSCAASGFTFSSYAIHWVRQAPGKGLEWVSGLSGGGGDTDYADSVKGRLTISRDNSKKTLFLEMNNLRPEDTAIYYCAKLTGYGSTPGSYMDVWGKGTTVSVSS
VL: SFELTQPPSVSVSPGQTASITCSGDKLGDIYASWYQQKPGQSPVVVIFQDNKRPSGVPERFSGSNSGNTATLTISGTQALDEADYYCQAWDTSTSVFGTGTKVTVL
notes: Fab of a human IgE mAb isolated from hybridomas obtained from a house dust mite allergic patient; also called hIgE mAb 4C8 Fab; source: CHO cells, purified
For the molecule B1, the “stoichiometry N” value is 2.
